Experimental data published in PMC5268738 (2017).
Square brackets hold non-standard residues; d marks the D form. Ends that are not written are not given here. pT = C[C@@H](OP(=O)(O)O)[C@H](N)C(=O)O; pS = N[C@@H](COP(=O)(O)O)C(=O)O

T1: human Mad1^CTD (human, UniProt Q9Y6D9 597-718)
T1 chain: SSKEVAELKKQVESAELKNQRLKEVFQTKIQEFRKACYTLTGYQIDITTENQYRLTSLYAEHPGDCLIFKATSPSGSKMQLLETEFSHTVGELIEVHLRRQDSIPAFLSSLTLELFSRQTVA


Target: T1, human Mad1^CTD
Test: ITC

Row | Kd [µM] | Binder
1 | 15.7 | CKVQPSP[pT]VHTKEALGFIMNMFQA [human Bub1 CM phospho-peptide pT461]
2 | 3.1 | CKVQP[pS]P[pT]VHTKEALGFIMNMFQA [human Bub1 CM phospho-peptide pS459-pT461]
